# Source: patent publication US20120231006A1 (Amgen, published 2012)
# Assays:
# [1] = target: T1, hOrai1-mOrai1 ECL2 (…) protein (human/mouse chimera, UniProt Q96D31 1-301); assay: FACS, 293EBNA; parameters: concentration or dose not given beside the values
# T1 construct: also called Ch
# Text: (§1) FIG. 17A-D illustrates the results of FACS analysis showing binding to the indicated mOrai1-hOrai1 ECL2 chimeric mutants expressed on the surface of HEK-293-EBNA cells. Transfected cells were stained first with recombinant monoclonal antibodies then counter-stained with a secondary phycoerythrin-labeled goat (“Gt”) anti-human (“Hu”) IgG F(ab′)₂ antibody fragment and visualized using FACS.
# (§2) Representative results of FACS analysis of binding to the mutant hOrai1-mOrai1 ECL2 chimera described above by exemplary anti-hOrai1 antibodies of the present invention are shown in FIG. 17A-D, Table 10A and Table 10B below. Table 10A (Campaign 1) and Table 10B (Campaign 2) show the gain in binding ability of exemplary monoclonal antibodies to hOrai 1-mOrai 1 ECL2 chimera mutants as determined by FACS.
# [2] = target: T2, hOrai1-mOrai1 ECL2 chimeric protein (human/mouse chimera, UniProt Q96D31 1-301); assay: FACS, 293EBNA; parameters: concentration or dose not given beside the values
# T2 construct: human Orai1 with mouse ECL2; also called Ch
# Text: as §1, §2
# [3] = target: T3, hOrai1-mOrai1 ECL2 (PASGAA) protein (human/mouse chimera, UniProt Q96D31 1-301); assay: FACS, 293EBNA; parameters: concentration or dose not given beside the values
# T3 construct: also called Ch
# Text: as §1, §2
# [4] = target: T4, hOrai1-mOrai1 ECL2 (GAA) protein (human/mouse chimera, UniProt Q96D31 1-301); assay: FACS, 293EBNA; parameters: concentration or dose not given beside the values
# T4 construct: also called Ch
# Text: as §1, §2
# [5] = target: T5, hOrai1-mOrai1 ECL2 (VST) protein (human/mouse chimera, UniProt Q96D31 1-301); assay: FACS, 293EBNA; parameters: concentration or dose not given beside the values
# T5 construct: also called Ch
# Text: as §1, §2
# [6] = target: T6, hOrai1-mOrai1 ECL2 (AANVST) protein (human/mouse chimera, UniProt Q96D31 1-301); assay: FACS, 293EBNA; parameters: concentration or dose not given beside the values
# T6 construct: also called Ch
# Text: as §1, §2
# human Orai1 = human Orai1 (human, UniProt Q96D31 1-301); assay: cell-based or functional assay
# [7] = target: T2, hOrai1-mOrai1 ECL2 chimeric protein; assay: FACS, 293EBNA; parameters: concentration or dose not given beside the values; remark: listed apart in the source
# Text: (§3) FIG. 16A-D illustrates the results of FACS analysis showing binding to the indicated mOrai1-hOrai1 ECL2 chimeric mutants expressed on the surface of HEK-293-EBNA cells. Transfected cells were stained first with recombinant monoclonal antibodies then counter-stained with a secondary phycoerythrin-labeled goat (“Gt”) anti-human (“Hu”) IgG F(ab′)₂ antibody fragment and visualized using FACS. In FIG. 16B and FIG. 16D, The values of Relative Fluorescence Intensity as Percent of Control (RFI-POC) are calculated from the relative fluorescence intensity geometric mean (Geo Mean). The geometric mean is an average calculated by multiplying a series of numbers and taking the nth root where n is the number of numbers in the series. It is a statistical average of a set of transformed numbers often used to represent a central tendency in a highly variable data set that minimizes the effects of extreme values.
# (§4) Table 11A and Table 11B feature a schematic representation of the POC data from FIG. 16B and FIG. 16D, respectively, where the binding results are recorded as (+++) denoting binding POC from 40% to 100%, (++) for POC of 5% to less than 40%, (+) for POC from 1% to less than 5% and (−) as lack of binding with POC less than 1%.
# [8] = target: T7, mOrai1-hOrai1 ECL2 (KPPAE) protein (human/mouse chimera, UniProt Q8BWG9 1-304 (mouse entry)); assay: FACS, 293EBNA; parameters: concentration or dose not given beside the values
# T7 construct: also called Ch
# Text: as §3, §4
# [9] = target: T8, mOrai1-hOrai1 ECL2 (…) protein (human/mouse chimera, UniProt Q8BWG9 1-304 (mouse entry)); assay: FACS, 293EBNA; parameters: concentration or dose not given beside the values
# T8 construct: also called Ch
# Text: as §3, §4
# T8 sequence (Q8BWG9 other isoform, or with tags, fused parts or gaps): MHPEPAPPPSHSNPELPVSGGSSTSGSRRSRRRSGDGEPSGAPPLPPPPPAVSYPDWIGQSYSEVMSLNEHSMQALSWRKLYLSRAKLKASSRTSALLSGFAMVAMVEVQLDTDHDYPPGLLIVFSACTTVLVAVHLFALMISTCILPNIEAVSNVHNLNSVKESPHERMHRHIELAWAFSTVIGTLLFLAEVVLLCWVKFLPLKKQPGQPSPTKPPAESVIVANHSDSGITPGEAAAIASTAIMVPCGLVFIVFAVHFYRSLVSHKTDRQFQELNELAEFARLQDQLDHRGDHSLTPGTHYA
# [10] = target: T9, mOrai1-hOrai1 ECL2 (SPTKPPAE) protein (human/mouse chimera, UniProt Q8BWG9 1-304 (mouse entry)); assay: FACS, 293EBNA; parameters: concentration or dose not given beside the values
# T9 construct: also called Ch
# Text: as §3, §4
# [11] = target: T10, mOrai1-hOrai1 ECL2 (…) protein (human/mouse chimera, UniProt Q8BWG9 1-304 (mouse entry)); assay: FACS, 293EBNA; parameters: concentration or dose not given beside the values; remark: listed apart in the source
# T10 construct: also called Ch
# Text: as §3, §4
# T10 sequence (Q8BWG9 other isoform, or with tags, fused parts or gaps): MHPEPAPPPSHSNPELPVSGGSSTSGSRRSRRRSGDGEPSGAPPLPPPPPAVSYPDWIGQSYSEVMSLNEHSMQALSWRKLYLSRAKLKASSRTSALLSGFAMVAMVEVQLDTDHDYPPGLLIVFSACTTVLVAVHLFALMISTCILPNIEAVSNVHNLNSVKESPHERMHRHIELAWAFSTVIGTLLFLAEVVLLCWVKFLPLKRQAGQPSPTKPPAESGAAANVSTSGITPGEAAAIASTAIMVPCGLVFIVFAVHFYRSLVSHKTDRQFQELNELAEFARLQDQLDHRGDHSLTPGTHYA
# [12] = target: T11, mOrai1-hOrai1 ECL2 (…) protein (human/mouse chimera, UniProt Q8BWG9 1-304 (mouse entry)); assay: FACS, 293EBNA; parameters: concentration or dose not given beside the values; remark: listed apart in the source
# T11 construct: also called Ch
# Text: as §3, §4
# T11 sequence (Q8BWG9 other isoform, or with tags, fused parts or gaps): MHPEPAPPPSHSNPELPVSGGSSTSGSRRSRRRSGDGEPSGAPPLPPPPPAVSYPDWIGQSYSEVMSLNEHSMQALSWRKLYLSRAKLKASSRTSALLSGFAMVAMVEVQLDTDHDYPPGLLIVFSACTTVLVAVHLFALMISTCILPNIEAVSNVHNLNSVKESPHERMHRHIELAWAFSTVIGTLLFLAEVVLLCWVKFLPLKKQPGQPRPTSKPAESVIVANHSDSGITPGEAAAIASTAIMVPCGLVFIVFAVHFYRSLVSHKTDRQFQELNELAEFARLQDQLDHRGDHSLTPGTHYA
# [13] = target: T12, mOrai1-hOrai1 ECL2 (…) protein (human/mouse chimera, UniProt Q8BWG9 1-304 (mouse entry)); assay: FACS, 293EBNA; parameters: concentration or dose not given beside the values; remark: listed apart in the source
# T12 construct: also called Ch
# Text: as §3, §4
# T12 sequence (Q8BWG9 other isoform, or with tags, fused parts or gaps): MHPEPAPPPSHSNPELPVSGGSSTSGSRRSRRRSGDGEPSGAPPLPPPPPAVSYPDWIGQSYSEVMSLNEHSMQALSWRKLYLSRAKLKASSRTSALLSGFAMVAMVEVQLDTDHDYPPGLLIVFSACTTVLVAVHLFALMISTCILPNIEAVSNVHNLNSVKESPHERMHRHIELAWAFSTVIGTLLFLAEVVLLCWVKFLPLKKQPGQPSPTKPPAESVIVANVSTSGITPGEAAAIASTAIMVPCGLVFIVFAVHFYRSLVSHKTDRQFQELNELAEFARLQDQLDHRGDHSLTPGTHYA
# [14] = target: T13, mOrai1-hOrai1 ECL2 (AESVIV) protein (human/mouse chimera, UniProt Q8BWG9 1-304 (mouse entry)); assay: FACS, 293EBNA; parameters: concentration or dose not given beside the values
# T13 construct: also called Ch
# Text: as §3, §4
# [15] = target: T7, mOrai1-hOrai1 ECL2 (KPPAE) protein; assay: flow cytometry on HEK-293 cells transfected with the chimera (loss of binding experiment)
# [16] = target: T8, mOrai1-hOrai1 ECL2 (…) protein; assay: as above
# [17] = target: T9, mOrai1-hOrai1 ECL2 (SPTKPPAE) protein; assay: as above
# [18] = target: T10, mOrai1-hOrai1 ECL2 (…) protein; assay: as above; remark: listed apart in the source
# [19] = target: T11, mOrai1-hOrai1 ECL2 (…) protein; assay: as above; remark: listed apart in the source
# [20] = target: T12, mOrai1-hOrai1 ECL2 (…) protein; assay: as above; remark: listed apart in the source
# [21] = target: T13, mOrai1-hOrai1 ECL2 (AESVIV) protein; assay: as above
# T7 sequence (Q8BWG9 other isoform, or with tags, fused parts or gaps): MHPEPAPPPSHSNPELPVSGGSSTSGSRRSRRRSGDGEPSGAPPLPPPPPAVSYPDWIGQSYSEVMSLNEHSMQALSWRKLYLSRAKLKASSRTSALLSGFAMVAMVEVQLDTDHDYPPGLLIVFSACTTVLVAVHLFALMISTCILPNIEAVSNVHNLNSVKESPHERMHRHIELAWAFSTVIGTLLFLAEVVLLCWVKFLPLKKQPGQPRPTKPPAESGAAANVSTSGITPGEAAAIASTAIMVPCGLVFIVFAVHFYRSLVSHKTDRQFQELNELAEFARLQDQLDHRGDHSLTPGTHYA
# T13 sequence (Q8BWG9 other isoform, or with tags, fused parts or gaps): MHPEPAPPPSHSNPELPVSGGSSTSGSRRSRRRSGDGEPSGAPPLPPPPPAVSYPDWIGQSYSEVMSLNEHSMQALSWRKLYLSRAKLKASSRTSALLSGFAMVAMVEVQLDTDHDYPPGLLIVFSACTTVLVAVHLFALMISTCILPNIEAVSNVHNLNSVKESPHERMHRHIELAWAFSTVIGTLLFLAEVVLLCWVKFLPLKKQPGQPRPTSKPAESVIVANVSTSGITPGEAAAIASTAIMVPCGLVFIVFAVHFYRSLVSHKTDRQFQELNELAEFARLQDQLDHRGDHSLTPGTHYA
# T3 sequence (Q96D31 other isoform, or with tags, fused parts or gaps): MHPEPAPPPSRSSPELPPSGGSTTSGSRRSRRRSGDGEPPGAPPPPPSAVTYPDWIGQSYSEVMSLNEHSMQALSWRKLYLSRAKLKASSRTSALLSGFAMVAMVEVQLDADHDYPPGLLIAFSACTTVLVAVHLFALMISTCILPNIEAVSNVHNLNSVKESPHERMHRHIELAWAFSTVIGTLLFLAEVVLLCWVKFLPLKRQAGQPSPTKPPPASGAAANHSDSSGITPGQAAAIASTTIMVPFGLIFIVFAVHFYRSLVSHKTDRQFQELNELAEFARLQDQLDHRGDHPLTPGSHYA
# Sequence of human Orai1 (Q96D31 whole entry): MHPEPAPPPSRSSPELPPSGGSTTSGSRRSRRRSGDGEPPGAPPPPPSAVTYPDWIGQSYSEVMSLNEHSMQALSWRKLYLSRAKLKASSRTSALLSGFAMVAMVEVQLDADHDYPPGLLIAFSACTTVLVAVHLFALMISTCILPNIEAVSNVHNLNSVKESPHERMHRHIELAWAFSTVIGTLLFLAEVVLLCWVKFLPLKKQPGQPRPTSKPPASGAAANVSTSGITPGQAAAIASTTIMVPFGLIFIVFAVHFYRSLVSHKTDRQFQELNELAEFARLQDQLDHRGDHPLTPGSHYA
# T4 sequence (Q96D31 other isoform, or with tags, fused parts or gaps): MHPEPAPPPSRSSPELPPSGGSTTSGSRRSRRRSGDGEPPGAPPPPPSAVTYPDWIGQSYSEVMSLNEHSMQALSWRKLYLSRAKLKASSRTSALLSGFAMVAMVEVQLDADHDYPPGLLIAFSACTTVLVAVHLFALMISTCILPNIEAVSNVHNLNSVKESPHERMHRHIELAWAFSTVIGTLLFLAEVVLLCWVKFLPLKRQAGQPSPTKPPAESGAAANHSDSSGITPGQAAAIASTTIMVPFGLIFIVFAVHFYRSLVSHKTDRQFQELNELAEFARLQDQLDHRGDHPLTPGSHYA
# T6 sequence (Q96D31 other isoform, or with tags, fused parts or gaps): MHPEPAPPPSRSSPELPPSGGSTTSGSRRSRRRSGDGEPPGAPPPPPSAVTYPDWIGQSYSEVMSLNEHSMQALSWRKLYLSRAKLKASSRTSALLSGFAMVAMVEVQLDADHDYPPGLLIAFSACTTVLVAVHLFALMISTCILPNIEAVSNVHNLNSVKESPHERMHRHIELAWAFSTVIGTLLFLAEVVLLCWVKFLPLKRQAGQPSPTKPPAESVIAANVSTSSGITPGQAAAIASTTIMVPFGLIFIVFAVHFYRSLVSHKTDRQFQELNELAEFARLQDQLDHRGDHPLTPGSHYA
# T1 sequence (Q96D31 other isoform, or with tags, fused parts or gaps): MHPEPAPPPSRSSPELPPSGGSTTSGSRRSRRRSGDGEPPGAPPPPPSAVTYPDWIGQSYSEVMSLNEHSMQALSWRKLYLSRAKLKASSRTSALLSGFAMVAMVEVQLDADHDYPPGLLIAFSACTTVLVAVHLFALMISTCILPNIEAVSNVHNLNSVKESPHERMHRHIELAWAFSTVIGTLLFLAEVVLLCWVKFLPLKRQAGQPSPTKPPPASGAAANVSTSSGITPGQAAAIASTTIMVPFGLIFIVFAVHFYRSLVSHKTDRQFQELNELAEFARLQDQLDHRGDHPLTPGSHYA
# T5 sequence (Q96D31 other isoform, or with tags, fused parts or gaps): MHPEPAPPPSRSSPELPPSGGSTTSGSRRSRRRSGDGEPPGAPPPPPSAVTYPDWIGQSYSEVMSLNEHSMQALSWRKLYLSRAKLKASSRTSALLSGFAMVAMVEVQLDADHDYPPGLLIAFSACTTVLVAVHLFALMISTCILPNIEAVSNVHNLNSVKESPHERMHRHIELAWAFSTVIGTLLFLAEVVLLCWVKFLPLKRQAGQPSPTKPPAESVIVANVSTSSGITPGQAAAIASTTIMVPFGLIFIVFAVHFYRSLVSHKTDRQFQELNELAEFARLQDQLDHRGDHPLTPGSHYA
# T2 sequence (Q96D31 other isoform, or with tags, fused parts or gaps mutant): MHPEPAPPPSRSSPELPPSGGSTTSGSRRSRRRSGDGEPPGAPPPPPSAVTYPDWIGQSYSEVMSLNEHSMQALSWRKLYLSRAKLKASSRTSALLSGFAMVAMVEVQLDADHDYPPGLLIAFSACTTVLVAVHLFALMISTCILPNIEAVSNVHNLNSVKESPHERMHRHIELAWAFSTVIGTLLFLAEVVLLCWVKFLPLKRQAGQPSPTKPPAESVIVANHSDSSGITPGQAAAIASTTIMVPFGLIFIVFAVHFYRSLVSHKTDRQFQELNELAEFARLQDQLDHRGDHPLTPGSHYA
# T9 sequence (Q8BWG9 other isoform, or with tags, fused parts or gaps): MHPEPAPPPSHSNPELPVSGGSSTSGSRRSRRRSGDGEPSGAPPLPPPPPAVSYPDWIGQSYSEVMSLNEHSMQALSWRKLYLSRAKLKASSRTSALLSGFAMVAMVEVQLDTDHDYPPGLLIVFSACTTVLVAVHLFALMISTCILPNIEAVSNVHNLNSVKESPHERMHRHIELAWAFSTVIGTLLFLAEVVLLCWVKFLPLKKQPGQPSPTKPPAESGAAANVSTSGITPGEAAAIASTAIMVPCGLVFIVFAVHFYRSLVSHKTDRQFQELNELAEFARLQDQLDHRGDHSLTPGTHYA
percent of control (POC) of FACS Geo Mean [1],percent of control (POC) of FACS Geo Mean [2],percent of control (POC) of FACS Geo Mean [3],percent of control (POC) of FACS Geo Mean [4],percent of control (POC) of FACS Geo Mean [5],percent of control (POC) of FACS Geo Mean [6],"IC50 IL-2, whole blood Donor A (human Orai1)","IC50 IL-2, whole blood Donor B (human Orai1)","POC (percent of control, FACS Geo Mean relative to binding to Ch. 1) [7]","POC (percent of control, FACS Geo Mean relative to binding to Ch. 1) [8]","POC (percent of control, FACS Geo Mean relative to binding to Ch. 1) [9]","POC (percent of control, FACS Geo Mean relative to binding to Ch. 1) [10]","POC (percent of control, FACS Geo Mean relative to binding to Ch. 1) [11]","POC (percent of control, FACS Geo Mean relative to binding to Ch. 1) [12]","POC (percent of control, FACS Geo Mean relative to binding to Ch. 1) [13]","POC (percent of control, FACS Geo Mean relative to binding to Ch. 1) [14]",binding result [15],binding result [16],binding result [17],binding result [18],Binder,further results
< 1%,< 1%,< 1%,< 1%,< 1%,< 1%,4.05 nM,3.49 nM,< 1%,< 1%,< 1%,< 1%,< 1%,< 1%,< 1%,< 1%,no binding,no binding,no binding,no binding,"mAb 5F7.1 (antibody, human IgG2, lambda, fully human IgG2 lambda, Campaign 2) heavy: QVQLVQSGAEVKKPGASVKVPCKASGYTFTDYYINWVRQAPGQGLEWMGWINPNNGGTNYAQKFQGRVTMTRDTSISTAYMELRRLRSDDTAVYYCARERGGYEDWFDPWGQGTLVTVSSASTKGPSVFPLAPCSRSTSESTAALGCLVKDYFPEPVTVSWNSGALTSGVHTFPAVLQSSGLYSLSSVVTVPSSNFGTQTYTCNVDHKPSNTKVDKTVERKCCVECPPCPAPPVAGPSVFLFPPKPKDTLMISRTPEVTCVVVDVSHEDPEVQFNWYVDGVEVHNAKTKPREEQFNSTFRVVSVLTVVHQDWLNGKEYKCKVSNKGLPAPIEKTISKTKGQPREPQVYTLPPSREEMTKNQVSLTCLVKGFYPSDIAVEWESNGQPENNYKTTPPMLDSDGSFFLYSKLTVDKSRWQQGNVFSCSVMHEALHNHYTQKSLSLSPGK light: QSVLTQPPSVSGAPGQRVTISCTGSSSNIGAGFDVHWYQQLPVTAPKLLIYGNRNRPSGVPARFSGSKSGTSASLAITGLQAEDEAVYYCQSYDSSLTVFGGGTKLTVLGQPKANPTVTLFPPSSEELQANKATLVCLISDFYPGAVTVAWKADGSPVKAGVETTKPSKQSNNKYAASSYLSLTPEQWKSHRSYSCQVTHEGSTVEKTVAPTECS","IC50 IFN-γ, whole blood Donor B (human Orai1): 11.8 nM; binding result [19]: no binding; binding result [20]: no binding; binding result [21]: no binding"
< 1%,< 1%,< 1%,< 1%,< 1%,< 1%,1.88 nM,1.21 nM,< 1%,< 1%,< 1%,< 1%,< 1%,< 1%,< 1%,< 1%,no binding,no binding,no binding,no binding,"mAb 5A4.2 (antibody, human IgG2, lambda, V domains shown, fully human IgG2 lambda, Campaign 2) VH: QVQLVQSGAEVKKPGASVKVSCKASGYTFTDYYMNWVRQAPGQGLEWMGWINPNSGGTKYAQKFQGRVTMTRDTSIRTAYMELSRLRSDDTAVYYCSREYGGNSDWFDPWGQGTLVTVSS VL: QSVLTQPPSVSGAPGQRVTISCTGSSSNIGAGYDVHWYQQLPGTAPKLLIYGNSNRPSGVPDRFSGSKSGTSASLAITGLQAEDEADYYCQSYDNRLSDSVVIGGGTKLTVQG","IC50 IFN-γ, whole blood Donor A (human Orai1): 4.83 nM; IC50 IFN-γ, whole blood Donor B (human Orai1): 2.76 nM; binding result [19]: no binding; binding result [20]: no binding; binding result [21]: no binding"
< 1%,< 1%,< 1%,< 1%,< 1%,< 1%,2.18 nM,1.24 nM,< 1%,< 1%,< 1%,< 1%,< 1%,< 1%,< 1%,< 1%,no binding,no binding,no binding,no binding,"mAb 5C1.1 (antibody, human IgG2, lambda, V domains shown, fully human IgG2 lambda, Campaign 2) VH: QVQLVQSGAEVKKPGASVKVSCKASGYTFTDYYMNWVRQAPGQGLEWMGWINPNSGGTKYAQKFQGRVTMTRDTSIRTAYMELSRLRSDDTAVYYCAREYGGNSDWFDPWGQGTLVTVSS VL: QSVLTQPPSVSGAPGQRVTISCTGSSSNIGAGYDVHWYQQLPGTAPKLLIYGNSNRPSGVPDRFSGSKSGTSASLAITGLQAEDEADYYCQSYDNRLSDSVVIGGGTKLAVQG","IC50 IFN-γ, whole blood Donor A (human Orai1): 5.42 nM; IC50 IFN-γ, whole blood Donor B (human Orai1): 2.41 nM; binding result [19]: no binding; binding result [20]: no binding; binding result [21]: no binding"
< 1%,< 1%,< 1%,< 1%,< 1%,< 1%,4.83 nM,3.79 nM,< 1%,< 1%,< 1%,< 1%,< 1%,< 1%,< 1%,< 1%,no binding,no binding,no binding,no binding,"mAb 5F2.1 (antibody, human IgG2, lambda, V domains shown, fully human IgG2 lambda, Campaign 2) VH: QVQLVQSGAEVKKPGASVKVSCKASGYTFTDYYMNWVRQAPGQGLEWMGWINPNSGGTHYAQKFQGRVTMTRDTSISTAYMELSRLRSDDTAVYYCAREYGGYSDWFDPWGQGTLVTVSS VL: QSVLTQPPSVSGAPGQRVTISCTGSRSNIGAGYDVHWYQQLPRTAPKLLIYDNSNRPSGVPDRFSGSKSGSSASLAITGLQAEDEADYYCQSYDNSLSDSVLIGGGTKLTVLG",binding result [19]: no binding; binding result [20]: no binding; binding result [21]: no binding
